{
  "source": "a protein production outcome set (Wang et al. 2014)",
  "data": [
    {"experiment": "label from the status in PepcDB records", "values": [
      {"sequence": "MSLWQPLVLVLLVLGCCFAAPRQRQSTLVLFPGDLRTNLTDRQLAEEYLYRYGYTRVAEMRGESKSLGPALLLLQKQLSLPETGELDSATLKAMRTPRCGVPDLGRFQTFEGDLKWHHHNITYWIQNYSEDLPRAVIDDAFARAFALWSAVTPLTFTRVYSRDADIVIQFGVAEHGDGYPFDGKDGLLAHAFPPGPGIQGDAHFDDDELWSLGKGVVVPTRFGNADGAACHFPFIFEGRSYSACTTDGRSDGLPWCSTTANYDTDDRFGFCPSERLYTRDGNADGKPCQFPFIFQGQSYSACTTDGRSDGYRWCATTANYDRDKLFGFCPTRADSTVMGGNSAGELCVFPFTFLGKEYSTCTSEGRGDGRLWCATTSNFDSDKKWGFCPDQGYSLFLVAAHEFGHALGLDHSSVPEALMYPMYRFTEGPPLHKDDVNGIRHLYGPRPEPEPRPPTTTTPQPTAPPTVCPTGPPTVHPSERPTAGPTGPPSAGPTGPPTAGPSTATTVPLSPVDDACNVNIFDAIAEIGNQLYLFKDGKYWRFSEGRGSRPQGPFLIADKWPALPRKLDSVFEEPLSKKLFFFSGRQVWVYTGASVLGPRRLDKLGLGADVAQVTGALRSGRGKMLLFSGRRLWRFDVKAQMVDPRSASEVDRMFPGVPLDTHDVFQYREKAYFCQDRFYWRVSSRSELNQVDQVGYVTYDILQCPED", "protein production": "not failed"},
      {"sequence": "MSMGKKHLNINSQNHQSTKDEDNNCKNSLFFGLFDDPESKRLRSGSMKRQYSDMGDSYHRVYDEQNDDVEYDGDGDGDEDEGSRMDMRVLMVLEYMRELYVGQLQLLKKMFPGAAKDEFLGFFNKIGDAVSQIKQDSRPPTKSMTMRRSLSAGSPRFTSKGVNLGPSDLRHERFKVTMVNAGGAAGSAGGGKGGSAAGQGQTKK", "protein production": "failed"},
      {"sequence": "MSMHPFLASPQQKIVSRMSPRPPPSPVCLGDLTHPIIAGLISVIVNYGGTFILVFQAAKIAGLSPELTASWVWSISIGVGLTGLFLSLRYREPIITAWSTPAAAFLVTALATTPYAEAIGAYMISAAAFVVLGLSGYFEKVIRLIPPGIASGLLAGILLQFGIGAFGGASVDPWLVGLLIAAYVALKRFSARYAVVGILLLGLAFLLTQGRVDLSGLKLVFAAPVFSMPEFSLNALLSVALPLFLITLTGQYMPGMLVLRNDGFKTSANPIVTVTGLGSLIMAPFGSHAFNIAAITAAIATGREAHEDPSKRWIAGIAAGCFYVLVGVFGVTLAAVFMAFPATFITTLAGLALLGTIGGSLAGAMADPTSREAALITFLASAANIKLLGIGGAFWGLLIGGLAYVVLNGPMPYRATTDHRVTEAAAK", "protein production": "failed"},
      {"sequence": "MSMKGISSAESDKLSRRISLTHKRNSEELDVFEAAVYFGYNEASSGDHGHTQKYGYNAAREENPRRWGILGGGRRISLDLPIRCSEQVYHLQQDHHEKHEVTTIKERLGNVRHKQPSSPGGKIASFLNSLFHQAGSKKNKSKSKSKTKPTDPEVEEEIPGGGWMRRRRRSSISHFFSSSRSTSTTTTTTASSSSKSLISSSSSGFRTPPPYLNTPTKNYKQFLNYTSATKQVGEEETKTNKEYSWLDEKLKVMESLSENQRIWSDDEDIDDDRRIKREGEDDGMESDSSSDLFELQNYELSRGGLPVYETTNVANINKTHI", "protein production": "failed"},
      {"sequence": "MSMNNSKQLVSPAAALLSNTTCQTENRLSVFFSVIFMTVGILSNSLAIAILMKAYQRFRQKSKASFLLLASGLVITDFFGHLINGAIAVFVYASDKEWIRFDQSNVLCSIFGICMVFSGLCPLLLGSVMAIERCIGVTKPIFHSTKITSKHVKMMLSGVCLFAVFIALLPILGHRDYKIQASRTWCFYNTEDIKDWEDRFYLLLFSFLGLLALGVSLLCNAITGITLLRVKFKSQQHRQGRSHHLEMVIQLLAIMCVSCICWSPFLGYRIILNGKEKYKVYEEQSDFLHRLQWPTLE", "protein production": "failed"},
      {"sequence": "MSMSTSTEVIAHHWAFAIFLIVAIGLCCLMLVGGWFLGGRARARSKNVPFESGIDSVGSARLRLSAKFYLVAMFFVIFDVEALYLFAWSTSIRESGWVGFVEAAIFIFVLLAGLVYLVRIGALDWTPARSRRERMNPETNSIANRQR", "protein production": "failed"},
      {"sequence": "MSMVLSFLKKFVENHVMSRHTVAVTLFLTDMAVILGTAIGVGLLRHAFDGYLDPTHYLRLLPFLLLFPAASFAMGLYQSVPLPPPCELKRLSLATCCTYLAIAIFIFFTRGGELYSRLTFALAGLVSLVAVPVARHLVRQRMARHRGWAAPALLFGKPHHVQPLAHILLSSPSLGLEPVAIVSAEHSTCHDFGCLPAFDAETTRQYAAGHPEAYAIVVMESYDEADRAHLVEHLSRLFCSVILLRSSTMSTGNIWLSPIEIGGLPGLMVRQNLLDPRRLTVKRTLDLIATTLALPLILPVMAVIALCIRLETPGPALFTQRRIGRDGYHFDILKFRTMYNDADTRLAECLEQSPELDAEWRRDHKLRCDPRVTRVGAFLRKTSLDELPQLWNVLRGDMSLVGPRPIVDSEVQRYDAAFATYTRVRPGITGLWQVSGRNNLSYPERVQRDMYYISNWSVWFDIWIIARTIPVVLHRDGAY", "protein production": "failed"},
      {"sequence": "MSNALATLASPADDIAFYEERLRAAMLTGDLKGLETLLADDLAFVDHTGCVKTKQTHLEPYRAGLLKLSRLDLSDAVVRAAGEDGRVVVVRAVTAGVYDGEAFTETLRFTRIWRRTQGPAGWKLVAGHCSVIL", "protein production": "not failed"},
      {"sequence": "MSNDSPQLPDFLLAGRYRLHRLIGAGGMGRVWEGVDELLDRPVAIKELTINEHLPPQEIEILRARMLREARSAAQLSHPSIITVFDVVEKDGFPWIVMELVHGKSLSEIIKQEGAISPERAANLGLQVAAALSVAHQRGIVHRDIKPGNVLVARGDRAVLTDFGIAYLEGSSRLTRTGSLLGSPSYLAPEQARGEPASPAADMWALGTTLYAALHGAPPFQRATPMATLTAVVVDEVPPPVKAGPLRPLLEQLLNKDPQKRPTVHEVVEELQRVVMSFPPQSSSASSTGTHTLQEEASPAPAEVSVAKPAADTSALPLSSPAEPGKRNSTLATVGLVALALCVVVAVITAVVLFVPAGGNSRADGEQPAAETSQSSEETGQAEEPEPTTSAEAAEQGVGEDDEDSEEEAEDDDYSGPPLVRHEDPTGFSLDVPEGWSVDRRGSSVFFRNPEGGYLQVDQTDSPNPDAKKDWEAQERGAAGRFSNYSLIDIRYSDHPSMERYVTASDWEFTFTINGQRMHAVNRGFHTEKKGYALFLVYPADGWEETGAPLLDRMSESFEPAA", "protein production": "failed"},
      {"sequence": "MSNENKTIHDFELNLICDFFSNMERQGPGSPEVTLKALSFIDNLTEKSLIADIGCGTGGQTMVLAGHVTGQVTGLDFLSGFIDIFNRNARQSGLQNRVTGIVGSMDDLPFRNEELDLIWSEGAIYNIGFERGLNEWRKYLKKGGYLAVSECSWFTDERPAEINDFWMDAYPEIDTIPNQVAKIHKAGYLPVATFILPENCWTDHYFTPKVAAQKIFLTKYAGNKIAEEFSMLQSIEEELYHKYKEYYGYTFFIAKKIRLLEHHHHHH", "protein production": "not failed"},
      {"sequence": "MSNGNKSEKKTLILALVAGMCGDALLSWLTMSEVSFSIFPLIALVLAVQALYQEYLNNPVSEDIPLVGLACFFVGAFGHSAFIKAQYPEAGSNFFAIMVSMILLAWIGKKLGFMEKKTSAE", "protein production": "failed"},
      {"sequence": "MSNLPFHQFCGTEGYVASRALQDVVNVAIALERPLLLKGEPGTGKTLLAYHIAKALGMEIILWNVKSTTKARDGLYTYDTVQRLNDARFGDGDVRDIRHYIKLGPLGRAFGSAERVVLLIDEVDKADIEFPNDLLFELDEMRFHVLETDEWVSAAHRPVVIVTSNSEKELPDAFLRRCVFHYIDFPDETQMRAIIDVHFPDLPAELMRSACKVFYGLREVPGLRKRPSTSELLDWIRVLLASGARLPEEETPALQSVPFLGALVKIQEDADILAHHASRSADVRTAGRRFFRLEHHHHHH", "protein production": "failed"},
      {"sequence": "MSNNTKRVGSQTIELKSKPRIIATYSVVGPREGQGPLKEYFDKILQDDCNGCESFEKAESSLMITAIEGVIKKGNVKEEDVDYLFSGDLLNQLTSTNFVAREFKIPFFGVYGACSTMAESLSLSSMIMDGDFAKYAIASTSSHFSSAERQFRFPLEYGCQRKEYSQWTVTGSGAMLLGKSGDYPYVTHVTTGIVKDYGIKDADNMGAAMAPAAVDTIYKHFVDTGRKPEDYDVIATGDLGAVGKKLTEELLKEYGYDISKVYIDCGEKIFDNEKQGTFAGGSGCGCSAVVACGYLYRMLKEKKLKRVLLVSTGALLSSTSALQGESIPGIAHAVAIEYILEHHHHHH", "protein production": "not failed"},
      {"sequence": "MSNVRIRQATTDDLIGIFEAHRNSVERLCTSEYSDQQIRMWLDGRSPETYREAVEKGSLWLAEGEQIEGFVELDGNEVSKLFIRGDVARRGLGSRLLEVALARLRASGASSAYLEATLTAEGFYAYHGFQKIGEGTFSRGNSPVSIEIIKMERPL", "protein production": "failed"}
    ]}
  ]
}
